Experimental data taken from patent US20150369821A1 (Pieris, published 2015).

T1: non-modified Hepcidin-25 (human, not fully specified)
T1 construct: also called Hepc25; mature human hepcidin
T1 peptide: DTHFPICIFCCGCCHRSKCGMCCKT


Columns and labels:
[1] = target: T1, non-modified Hepcidin-25; assay: competition ELISA, non-modified Hepcidin-25 in solution (25 pM)
[2] = target: T1, non-modified Hepcidin-25; assay: cell-based or functional assay

Row | IC50 [1] | In Vitro Neutralization Activity Assay, IC50 [nM] (cell-based hepcidin-induced internalization of ferroportin-GFP) [2] | Binder
1 | 0.18 nM | 25 nM | hepcidin-specific lipocalin mutein of SEQ ID NO: 8 (designed binder, Mutein of human NGAL (lipocalin 2); also called hNGAL mutein) QDSTSDLIPAPPLSKVPLQQNFQDNQFHGKWYVVGLAGNEVLREDKDPMKMWATIYELKEDKSYNVTIVMPLAEKCEYLFQTFVPGSQPGEFTLGGIKSGPGRTSGLVRVVSTNYNQHAMVFFKVVWQNREVFWVTLYGRTKELTSELKENFIRFSKSLGLPENHIVFPVPIDQCIDG
2 | 0.1 nM | 31 nM | hepcidin-specific lipocalin mutein of SEQ ID NO: 10 (designed binder, Mutein of human NGAL (lipocalin 2); also called hNGAL mutein) QDSTSDLIPAPPLSKVPLQQNFQDNQFHGKWYVVGLAGNEILREDKDPMKMWATIYELKEDRSYNVTIVMFLAKKCEYLFQTFVPGSQPGEFTLGDIKSSPGRTSGLVRVVSTNYNQHAMVFFKVVWQNREVFWITLYGRTKELTPELKENFIRFSKSLGLPENHIVFPVPIDQCIDGF
